How the values were obtained:
[1] = molecular target: MMP-9 (commercial enzyme, Sigma) (UniProt P14780); assay: cell-based or functional assay
[2] = molecular target: MMP-9 present in HT29 extracellular media (human) (UniProt P14780); assay: cell-based or functional assay
MMP-9 present in HT29 extracellular media (human), sequence (P14780 20-707): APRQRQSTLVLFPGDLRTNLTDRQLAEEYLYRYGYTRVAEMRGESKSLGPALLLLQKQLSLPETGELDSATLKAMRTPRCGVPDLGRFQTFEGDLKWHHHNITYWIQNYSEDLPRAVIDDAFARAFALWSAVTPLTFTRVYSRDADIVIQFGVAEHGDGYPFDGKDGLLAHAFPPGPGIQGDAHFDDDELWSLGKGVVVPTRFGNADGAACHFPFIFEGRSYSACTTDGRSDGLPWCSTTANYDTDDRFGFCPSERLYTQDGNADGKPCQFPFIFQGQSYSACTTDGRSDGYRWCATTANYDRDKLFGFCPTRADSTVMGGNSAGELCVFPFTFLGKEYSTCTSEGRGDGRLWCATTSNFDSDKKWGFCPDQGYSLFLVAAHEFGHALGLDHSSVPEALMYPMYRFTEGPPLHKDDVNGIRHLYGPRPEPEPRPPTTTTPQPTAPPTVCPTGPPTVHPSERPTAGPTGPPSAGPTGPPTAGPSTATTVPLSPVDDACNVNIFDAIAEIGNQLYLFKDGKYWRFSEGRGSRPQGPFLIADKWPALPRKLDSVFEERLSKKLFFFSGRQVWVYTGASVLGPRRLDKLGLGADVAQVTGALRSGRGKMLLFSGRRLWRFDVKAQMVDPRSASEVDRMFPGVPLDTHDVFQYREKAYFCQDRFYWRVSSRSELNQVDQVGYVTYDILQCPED

MMP-9 (commercial enzyme, Sigma), sequence (P14780 107-707 limits assumed): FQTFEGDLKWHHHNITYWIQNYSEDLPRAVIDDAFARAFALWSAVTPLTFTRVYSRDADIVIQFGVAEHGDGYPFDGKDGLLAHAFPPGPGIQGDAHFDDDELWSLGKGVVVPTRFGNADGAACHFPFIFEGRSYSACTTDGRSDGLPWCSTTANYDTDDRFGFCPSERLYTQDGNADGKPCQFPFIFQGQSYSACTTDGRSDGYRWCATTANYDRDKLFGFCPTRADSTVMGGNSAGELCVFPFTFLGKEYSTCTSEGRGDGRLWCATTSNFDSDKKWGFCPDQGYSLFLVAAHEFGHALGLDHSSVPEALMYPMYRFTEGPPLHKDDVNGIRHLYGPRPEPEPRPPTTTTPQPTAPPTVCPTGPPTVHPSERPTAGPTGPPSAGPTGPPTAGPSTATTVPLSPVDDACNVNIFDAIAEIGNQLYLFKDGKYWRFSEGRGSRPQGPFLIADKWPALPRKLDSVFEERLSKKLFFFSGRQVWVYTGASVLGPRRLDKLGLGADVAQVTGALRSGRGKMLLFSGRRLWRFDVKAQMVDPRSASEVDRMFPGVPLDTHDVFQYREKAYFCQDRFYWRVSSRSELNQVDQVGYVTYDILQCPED

Row | gelatinolytic activity of MMP-9 on DQ-gelatin, deflamin at 100 µg/mL [1] | EC50, MMP inhibition (gelatinolytic activity of HT29 media, DQ-gelatin) [2] | MIC, MMP inhibition (gelatinolytic activity of HT29 media, DQ-gelatin) [2] | MMP-9 inhibitory activity, DQ gelatin assay [1] | Substance
1 | > 90% | 10 µg/mL | < 5 µg/mL |  | deflamin isolated from Lupinus albus seeds (from UniProt Q53HY0 31-531; F5B8W8 73-152)
2 |  |  |  | 100% | fraction 4 of the size exclusion chromatography (Superdex 75) of the L. albus total protein extract

— patent US20200113969A1
